Laboratory results as given in article doi:10.1101/2020.01.24.918300 (bioRxiv, 2020).

Biological target: the molecule itself
Experiment: single-molecule photobleaching step counting on DNA tightropes

B1: cJun bZIP region fused to mNeonGreen (domain or fragment)
chain: RIKAERKRMRNRIAASKCRKRKLERIARLEEKVKTLKAQNSELASTANMLREQVAQLKQKVMNH
Question: Which “stoichiometry N” value does the source give for B1 here?
Answer: 2
